Results reported in paper PMC3247280, “Oligomerization of ZFYVE27 (Protrudin) Is Necessary to Promote Neurite Extension” (PLoS ONE, 2011).

What was measured:
[1] = target: the molecule itself; assay: SDS-PAGE and immunoblot (SDS-resistant dimer); lysates of NIH-3T3 overexpressing E2-ZFYVE27^WT or c-Myc-ZFYVE27^WT, immunoblot with ZFYVE27 antibody
[2] = target: the molecule itself; assay: SDS-PAGE and immunoblot (SDS-resistant dimer); NSC34 cell extract, cytosolic (S-100) and membrane (P-100) fractions, immunoblot with ZFYVE27 antibody

B1: ZFYVE27^WT (full-length ZFYVE27, E2- or c-Myc-tagged, in mammalian cells) (natural protein, human, UniProt Q5T4F4-2 1-404, looked up)
chain: MQTSEREGSGPELSPSVMPEAPLESPPFPTKSPAFDLFNLVLSYKRLEIYLEPLKDAGDGVRYLLRWQMPLCSLLTCLGLNVLFLTLNEGAWYSVGALMISVPALLGYLQEVCRARLPDSELMRRKYHSVRQEDLQRGRLSRPEAVAEVKSFLIQLEAFLSRLCCTCEAAYRVLHWENPVVSSQFYGALLGTVCMLYLLPLCWVLTLLNSTLFLGNVEFFRVVSEYRASLQQRMNPKQEEHAFESPPPPDVGGKDGLMDSTPALTPTEDLTPGSVEEAEEAEPDEEFKDAIEEDDEGAPCPAEDELALQDNGFLSKNEVLRSKVSRLTERLRKRYPTNNFGNCTGCSATFSVLKKRRSCSNCGNSFCSRCCSFKVPKSSMGATAPEAQRETVFVCASCNQTLSK
notes: numbers count on: this 404-residue isoform; Each copy carries only one tag: E2 (vector pQM-N-Tag A) or six c-Myc tags (vector pCS2-myc); The two differently tagged copies are written as one molecule because the protein is tested against itself; With the E2-tagged deletion constructs the c-Myc copy was used; with GFP-Spastin and in the sucrose gradient the E2 copy; also called E2-ZFYVE27^WT; …
- stoichiometry N [1]: 2

B2: endogenous ZFYVE27 of NSC34 cells (natural protein, mouse (endogenous in NSC34), UniProt Q3TXX3 1-415, looked up)
chain: MQTSDRDLSGPEASPSGMPEVLSECPPAPTKSAAFDLFNLVLSYKRLEIYLEPLKDAGDGVRYLLRWQMPLCSLLTCLGLNILFLTLNEGAWYSMGALMISVPALLGYLQEVCRGQLPESELMRRKYHSIRQEDLQRVRLSRVHLSRPEAVAEVKSFLIQLEAFLARLCYTCESAYRVLHWENPVVSSQFYGALLGMVCMLYLLPLCWVLALLNSTLFLGNGDFFRVVCEYRACLQRRMNPRQEECACESSALQGAGGRGLLDSSPAPTPTEDLTPGSVEEAEEAEPDEEFKDAIEETHLVVLEDEEGTPCPAEDELTLQDNGFLSKNEVLRSKVSRLTERLRKRYPTNNFGNCAGCAATFSVLKKRRSCSNCGNSFCSRCCSFKVPRSSMGATAPEAQRETVCVCASCNQTLSK
notes: ZFYVE27 expressed endogenously in NSC34 (a mouse embryonic spinal cord-neuroblastoma hybrid cell line); also called mo-ZFYVE27; di-ZFYVE27
- stoichiometry N [2]: 2
